Where two headings read alike, the source gives them in different places.
Tests used:
human IL-33 (mm2) [1] = target: T1, human IL-33 (mm2) (human, UniProt O95760 112-270); test: cell-based or functional assay
T1 chain: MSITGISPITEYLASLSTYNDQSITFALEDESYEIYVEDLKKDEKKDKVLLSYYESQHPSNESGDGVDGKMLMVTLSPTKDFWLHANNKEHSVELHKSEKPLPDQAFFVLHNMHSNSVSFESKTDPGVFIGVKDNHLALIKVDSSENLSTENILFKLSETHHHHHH

human IL-33 (mm2) [2] = target: T1, human IL-33 (mm2); test: cell-based or functional assay
human IL-33 WT (R&D) [3] = target: T2, human IL-33 WT (R&D) (human, UniProt O95760 112-270); test: cell-based or functional assay
T2 sequence: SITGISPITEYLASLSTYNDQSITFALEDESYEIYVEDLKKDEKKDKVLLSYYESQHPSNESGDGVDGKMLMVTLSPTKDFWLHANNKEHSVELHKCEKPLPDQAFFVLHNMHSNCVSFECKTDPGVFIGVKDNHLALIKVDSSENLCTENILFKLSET

[4] = target: T3, cynomolgus monkey IL-33 (cys mut) (cynomolgus monkey); test: cell-based or functional assay
T3 chain: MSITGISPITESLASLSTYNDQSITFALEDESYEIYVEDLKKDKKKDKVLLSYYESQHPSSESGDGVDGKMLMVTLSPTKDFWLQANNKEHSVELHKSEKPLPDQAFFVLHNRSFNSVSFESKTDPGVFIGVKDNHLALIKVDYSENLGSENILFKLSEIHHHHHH

human IL-33 (mm2) [5] = target: T1, human IL-33 (mm2); test: cell-based or functional assay
human IL-33 WT (R&D) [6] = target: T2, human IL-33 WT (R&D); test: cell-based or functional assay; remark: listed apart in the source
human IL-33 (mm2) [7] = target: T1, human IL-33 (mm2); test: cell-based or functional assay
[8] = target: T3, cynomolgus monkey IL-33 (cys mut); test: cell-based or functional assay
human IL-33 (mm2) [9] = target: T1, human IL-33 (mm2); test: cell-based or functional assay
[10] = target: T3, cynomolgus monkey IL-33 (cys mut); test: cell-based or functional assay
human IL-33 (mm2) [11] = target: T1, human IL-33 (mm2); test: cell-based or functional assay
[12] = target: T3, cynomolgus monkey IL-33 (cys mut); test: cell-based or functional assay
human IL-33 (mm2) [13] = target: T1, human IL-33 (mm2); test: cell-based or functional assay
[14] = target: T3, cynomolgus monkey IL-33 (cys mut); test: cell-based or functional assay
human IL-33 (mm2) [15] = target: T1, human IL-33 (mm2); test: cell-based or functional assay
human IL-33 WT (R&D) [16] = target: T2, human IL-33 WT (R&D); test: cell-based or functional assay; remark: listed apart in the source
[17] = target: T3, cynomolgus monkey IL-33 (cys mut); test: cell-based or functional assay
human IL-33 (mm2) [18] = target: T1, human IL-33 (mm2); test: cell-based or functional assay
human IL-33 (mm2) [19] = target: T1, human IL-33 (mm2); test: cell-based or functional assay
human IL-33 WT (R&D) [20] = target: T2, human IL-33 WT (R&D); test: cell-based or functional assay; remark: listed apart in the source
human IL-33 (mm2) [21] = target: T1, human IL-33 (mm2); test: SPR, IgG captured by anti-human Fc, IL-33 in solution
Protocol: (§1) Binding to human and cynomolgus monkey IL-33 was measured by surface plasmon resonance using a BIAcore T200 instrument. An anti-human Fc antibody was immobilized on a CM5 chip, and anti-IL-33 antibodies were captured.

[22] = target: T3, cynomolgus monkey IL-33 (cys mut); test: as above
Protocol: as §1

B1: 7E8 CDR graft (antibody, human IgG1, kappa)
heavy: HSEVQLVESGGGLVQPGGSLRLSCAASGFTFSSYWMYWVRQAPGKGLEWVASITPNGGNTYYPDSVKGRFTISRDNAKNSLYLQMNSLRAEDTAVYYCARGHYYYTSYSLGYWGQGTLVTVSSASTKGPSVFPLAPSSKSTSGGTAALGCLVKDYFPEPVTVSWNSGALTSGVHTFPAVLQSSGLYSLSSVVTVPSSSLGTQTYICNVNHKPSNTKVDKKVEPKSCDKTHTCPPCPAPEAAGAPSVFLFPPKPKDTLMISRTPEVTCVVVDVSHEDPEVKFNWYVDGVEVHNAKTKPREEQYNSTYRVVSVLTVLHQDWLNGKEYKCKVSNKALPAPIEKTISKAKGQPREPQVYTLPPSREEMTKNQVSLTCLVKGFYPSDIAVEWESNGQPENNYKTTPPVLDSDGSFFLYSKLTVDKSRWQQGNVFSCSVMHEALHNHYTQKSLSLSPGK
light: DIQMTQSPSSLSASVGDRVTITCKASQNINKHLDWYQQKPGKAPKLLIYFTNNLQTGVPSRFSGSGSGTDFTLTISSLQPEDFATYYCFQYNNGWTFGGGTKVEIKRTVAAPSVFIFPPSDEQLKSGTASVVCLLNNFYPREAKVQWKVDNALQSGNSQESVTEQDSKDSTYSLSSTLTLSKADYEKHKVYACEVTHQGLSSPVTKSFNRGEC
notes: also called CDR-grafted 7E8; 7E8 CDR-grafted
IC50, HEK293 ST2 NFkB (human IL-33 (mm2) [1]): 0.019 nM | IC50, HEK293 ST2 NFkB (human IL-33 (mm2) [2]): 0.043 nM | IC50, HEK293 ST2 NFkB (human IL-33 WT (R&D) [3]): 3.21 nM | IC50, HEK293 ST2 NFkB [4]: 0.069 nM | EC50 of IL-33 + 0.2 pM 7E8, human PBMC donor 149 (human IL-33 (mm2) [5]): 0.9 pM | EC50 of IL-33 + 0.2 pM 7E8, human PBMC donor 172 (human IL-33 (mm2) [5]): 15.1 pM | EC50 of IL-33 + 2 pM 7E8, human PBMC donor 149 (human IL-33 (mm2) [5]): 2.6 pM | EC50 of IL-33 + 2 pM 7E8, human PBMC donor 172 (human IL-33 (mm2) [5]): 23.2 pM | EC50 of IL-33 + 20 pM 7E8, HEK293 ST2 NFkB reporter cells (human IL-33 (mm2) [5]): 2.6 pM | EC50 of IL-33 + 20 pM 7E8, human PBMC donor 149 (human IL-33 (mm2) [5]): 29.1 pM | EC50 of IL-33 + 20 pM 7E8, human PBMC donor 172 (human IL-33 (mm2) [5]): 154 pM | EC50 of IL-33 + 200 pM 7E8, HEK293 ST2 NFkB reporter cells (human IL-33 (mm2) [5]): 29.1 pM | EC50 of IL-33 + 200 pM 7E8, human PBMC donor 149 (human IL-33 (mm2) [5]): 262 pM | EC50 of IL-33 + 200 pM 7E8, human PBMC donor 172 (human IL-33 (mm2) [5]): 400 pM | EC50 of IL-33 + 2 nM 7E8, HEK293 ST2 NFkB reporter cells (human IL-33 (mm2) [5]): 0.262 nM | EC50 of IL-33 + 2 nM 7E8, human PBMC donor 149 (human IL-33 (mm2) [5]): 2.83 nM | EC50 of IL-33 + 2 nM 7E8, human PBMC donor 172 (human IL-33 (mm2) [5]): 1.22 nM | EC50 of IL-33 + 20 nM 7E8, HEK293 ST2 NFkB reporter cells (human IL-33 (mm2) [5]): 2.83 nM | EC50 of IL-33 + 2 pM 7E8, HEK293 ST2 NFkB reporter cells (human IL-33 WT (R&D) [6]): 8 pM | EC50 of IL-33 + 20 pM 7E8, HEK293 ST2 NFkB reporter cells (human IL-33 WT (R&D) [6]): 10.2 pM | EC50 of IL-33 + 200 pM 7E8, HEK293 ST2 NFkB reporter cells (human IL-33 WT (R&D) [6]): 25.8 pM | EC50 of IL-33 + 2 nM 7E8, HEK293 ST2 NFkB reporter cells (human IL-33 WT (R&D) [6]): 0.103 nM | EC50 of IL-33 + 20 nM 7E8, HEK293 ST2 NFkB reporter cells (human IL-33 WT (R&D) [6]): 0.653 nM | IC50, HEK293 ST2 NFkB (human IL-33 (mm2) [7]): 0.059 nM | IC50, HEK293 ST2 NFkB [8]: 0.131 nM | IC50, HEK293 ST2 NFkB (human IL-33 (mm2) [9]): 0.057 nM | IC50, HEK293 ST2 NFkB [10]: 0.077 nM | IC50, HEK293 ST2 NFkB (human IL-33 (mm2) [11]): 0.04 nM | IC50, HEK293 ST2 NFkB [12]: 0.054 nM | IC50, HEK293 ST2 NFkB (human IL-33 (mm2) [13]): 0.114 nM | IC50, PBMC mm2 (human IL-33 (mm2) [13]): 0.004 nM | IC50, whole blood mm2 (human IL-33 (mm2) [13]): 0.009 nM | IC50, HEK293 ST2 NFkB cyno IL-33 [14]: 0.18 nM | IC50, HEK293 ST2 NFkB (human IL-33 (mm2) [15]): 0.093 nM | IC50, HEK293 ST2 NFkB (human IL-33 WT (R&D) [16]): 0.322 nM | IC50, HEK293 ST2 NFkB [17]: 0.184 nM | IC50, IFN-γ production in human PBMC (human IL-33 (mm2) [18]): 0.0014 nM | IC50, human whole blood (human IL-33 (mm2) [19]): 0.014 nM | IC50, human whole blood (human IL-33 WT (R&D) [20]): 0.387 nM | Kd (human IL-33 (mm2) [21]): 0.171 nM | Kd [22]: 0.142 nM

— patent US20180037644A1 (Pfizer, published 2018)
